The values below come from publication PMC11923092.

The nature of series [1]: SEC; 1P at an isolated protein concentration of 45 µM; monomer against aggregate. (In general: Size exclusion chromatography separates by hydrodynamic size, large species first.)
A short description of series [2]: SEC; Superdex 200 10/300, 4 °C, 0.75 mL/min, assay buffer; protein as isolated; soluble aggregate at the void volume against the monomer.
Series [3] can be described thus: SEC; analytical SEC at 15 °C after dilution to 10 µM and 24 h at 15 °C in 50 mM Tris, 300 mM NaCl, pH 7; aggregate/monomer ratio from peak areas.
A short description of series [4]: SEC; construct with a partial Aes^N fragment fused to MBP at 150 µM; aggregate content.
Series [5] is described as follows: SEC; constructs with partial Aes^N fragments fused to MBP, 30 µM each; aggregate and monomer content.
Series [6] is described as follows: SEC; analytical SEC without prior concentration adjustment; cysteine-containing proteins reduced with 0.5 mM TCEP before SEC.

As to MBP-Aes^N-H6 (1P), the “monomeric fraction (SEC)” value in series [1] was “at 45 µM and 135 µM only about 4% and no detectable monomeric species were present”; in series [2] it was “about 29%”; in series [3], 19% measured for the WT (1P). In addition, the “aggregated fraction (SEC)” value in series [2] is “about 71% of the protein”.
As to 14P, MBP fusion of Aes^N aa69-120, the “aggregated fraction (SEC)” value in series [4] was 9% at 30 µM and 15% at 150 µM; in series [5], 9% at 30 µM and 15% at 150 µM.
In the case of 13P, MBP fusion of Aes^N aa62-120, in series [5], the “aggregated fraction (SEC)” value is given as “showed a significant aggregated fraction (53%)”.
Consider MBP-Ssp^N-H6 (25P), for which, in series [6], the “aggregated fraction (SEC)” value is recorded as “high-molecular weight aggregate fraction (ca. 66%)” and the “monomeric fraction (SEC)” value is on record as “a monomeric fraction (ca. 34%)”.
On to GFP-Npu^N-H6 (27P), for which the “monomeric fraction (SEC)” value in series [6] is given as “this precursor existed to only 43% as a monomer”.
